# Experimental data as given in patent publication US20040175378A1, “Selected antibody compositions and methods for binding to aminophospholipids” (Board of Regents, The University of Texas System, priority 2002, published 2004).
# B1: 3G4: mouse IgG3 kappa monoclonal antibody binding PS and other anionic phospholipids; hybridoma ATCC PTA 4545 (antibody, V domains shown)
# VH: EVQLQQSGPELEKPGASVKLSCKASGYSFTGYNMNWVKQSHGKSLEWIGHIDPYYGDTSYNQKFRGKATLTVDKSSSTAYMQLKSLTSEDSAVYYCVKGGYYGHWYFDVWGAGTTVTVSSATTTAPSVYPLVP
# VL: DIQMTQSPSSLSASLGERVSLTCRASQDIGSSLNWLQQGPDGTIKRLIYATSSLDSGVPKRFSGSRSGSDYSLTISSLESEDFVDYYCLQYVSSPPTFGAGTKLELKRADAAPTVFIFGRIP
# Tests used:
# Meth A fibrosarcoma = experiment: 3G4 tumor treatment; format: in vivo, mouse
# Procedure: In the subcutaneous model, mice are typically injected with 1×10^7 cells in 0.2 ml. Mice are not anesthetized, but are restrained using a steady grip of mouse skin exposing the right flank. A 1 ml syringe with a 23 gauge needle is used to inject 1×10^7 cells in 200 μl, just under the skin of the mice and a bleb will be seen. It is not unusual to observe a small amount of fluid leak from the injection site. A twisting motion may be used when withdrawing the needle from the subcutaneous injection to reduce this leakage. Tumor volume is measured by L×W×H.
# Treatment was repeated 3 times a week. Animals were monitored twice a week for tumor measurements.
# [1] = tested on: orthotopic MDA-MB-435 breast cancer; experiment: 3G4 and ch3G4 tumor treatment; format: in vivo, mice
# Procedure: Tumors were also established using MD-MBA-435s cells and treated as described above. […] The treatment of large L540 tumors, MDA-MB-231 and MD-MBA-435s tumor cells for 60 days is shown in FIG. 8D, FIG. 8E and FIG. 8F. The antibodies caused tumor vascular injury, thrombosis and necrosis and retarded tumor growth, with no evidence of toxicity.
# MD-MBA-435s lucerifase cells were obtained from Dr. Angels Sierra Jimenez, Barcelona, Spain and were grown in 10% DMEM. Mice were injected with tumor cells as described as above, and at 2 weeks post injection, the tumors were measured and the volume recorded. […] Treatment was initiated by IP injection (800 μg) at day 15 and continued with injections of 200 μg every two to three days until the final injection of 400 μg at day 35. Tumor volumes and mouse body weights were measured on injection days. Mice were sacrificed and perfused with saline for 12 minutes. The organs and tumor were removed, snap-frozen in liquid nitrogen and the tumor sectioned for immunohistochemistical analysis.
# apoptotic tumor cells = experiment: Dendritic cell uptake of apoptotic tumor cells; format: cell-based; conditions: Fc(γ)R mediated internalization of 3G4-ATC complexes
# tumor cells = experiment: Direct effect of 3G4 on tumor cells in vitro; format: cell-based
# [2] = monkey, in vivo
molecule,measurement,setting,value
B1,mice with long-term complete remissions,Meth A fibrosarcoma; Meth A-bearing mice,50%
same,growth retardation,Meth A fibrosarcoma; syngeneic Meth A,90%
same,tumor growth as opposed to control,"[1]; i.p. 800 μg day 15, 200 μg every two to three days, 400 μg day 35",effectively retarded tumor growth
same,growth retardation,[1]; orthotopic MDA-MB-435,70%
same,enhancement of DC uptake of apoptotic tumor cells,apoptotic tumor cells,300%
same,direct inhibitory effect on tumor cells,tumor cells,No direct inhibitory effect on tumor cells was observed
same,side effects,[2],no side effects have been observed
